From patent US20120277143A1 (Janssen / Centocor, published 2012)

Key:
[1] = target: T1, human IL13 (human, UniProt P35225 35-146, biotinylated in the SPR assays (sites not given)); test: cell-based or functional assay
[2] = target: T2, human IL4 (human, UniProt P05112 25-153, biotinylated in the SPR and competition assays (sites not given)); test: cell-based or functional assay
T2 sequence: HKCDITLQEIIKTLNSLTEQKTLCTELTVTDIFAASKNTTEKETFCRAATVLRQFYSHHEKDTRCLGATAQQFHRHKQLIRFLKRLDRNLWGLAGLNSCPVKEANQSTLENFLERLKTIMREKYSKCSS

[3] = target: T2, human IL4; test: Affinity to IL4; method not re-described
[4] = target: T1, human IL13; test: Affinity to IL13; method not re-described
[5] = target: T2, human IL4; test: IL4R binding inhibition; repeats Table 17
Method: AR protein inhibition of IL4 binding to IL4 RA was assessed using IL4 RA-Fc (R&D Systems), comprising the Gly24-His232 which represents the ECD (SEQ ID NO: 5) fused to a human IgGl-Fc and therefor a disulfide linked homodimer. The protein was conjugated to carboxylated Luminex microspheres according to the manufacturer's protocol. For neutralization experiments, 5000 IL4RA-Fc conjugated beads in 50 μl were added to each well of a 96-well filter plate (Millipore). Biotinylated human IL4 was mixed with an appropriate dilution of AR protein in Luminex Assay Buffer (PBS, 1% BSA, pH 7.4) to give a final concentration of 67 pM IL4. The plate was incubated for 1 hour at RT in the dark on a plate shaker, set to shake vigorously to avoid bead aggregation. The plate was washed twice with 150 μl of wash buffer (PBS, 0.1% BSA, pH 7.4, 0.05% Tween-20) using a vacuum manifold followed by the addition of 50 μl of Streptavidin PE at 25 μg/ml and incubated at RT for 20 minutes. The plates were washed again and 150 μl of sheath fluid was added and the plate was placed on the shaker for 5 minute. Plates were read using a Luminex® 100 system; data were plotted as a function of AR protein concentration. IC₅₀ values were determined by fitting the data to the equation for sigmoidal dose response using PRISM software (GraphPAD PRISM) (Table 6).

[6] = target: T3, human IL13 R130Q (human, UniProt P35225 35-146, biotinylated (sites not given)); test: IL13Ra2 binding inhibition; repeats Table 17
T3 construct: Peprotech; also called IL13R13Q; R111Q
T3 sequence (P35225 35-146 limits assumed, stated change not applied): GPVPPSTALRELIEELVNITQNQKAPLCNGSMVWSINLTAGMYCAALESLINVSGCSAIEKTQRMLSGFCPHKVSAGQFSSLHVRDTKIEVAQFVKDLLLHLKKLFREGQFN
Method: (§1) Binding protein inhibition of IL13 binding to Rα2 was assessed using IL13Rα2-Fc (R&D Systems) conjugated to carboxylated Luminex microspheres according to the manufacturer's protocol. For biotinylation of IL13, recombinant human IL13 R130Q (Peprotech) was biotinylated at a 4:1 ratio using EZ-Link NHS-LC-Biotin (Pierce, #21336) for 2 hours at RT. The protein was dialyzed in PBS overnight to remove excess biotinylation reagent. For neutralization experiments, 5000 IL13 Rα2-Fc conjugated beads in 50 μl were added to each well of a 96-well filter plate (Millipore). 50 μl of biotinylated human IL13 at 1 ng/ml (80 pM) was mixed with an appropriate dilution of binding protein in Luminex Assay Buffer (PBS, 1% BSA, pH 7.4). The plate was incubated for 1 hour at RT in the dark on a plate shaker, set to shake vigorously to avoid bead aggregation. The plate was washed 3 times with 150 μl of wash buffer (PBS, 1% BSA, pH 7.4, 0.05% Tween-20) using a vacuum manifold followed by the addition of 50 μl of Streptavidin PE at 25 μg/ml and incubated at RT for 20 minutes. The plates were washed again and 100 μl of sheath fluid was added and the plate was placed on the shaker for 1 minute. Plates were read using a Luminex® 100 system; data were plotted as a function of binding protein concentration. IC₅₀ values were determined by fitting the data to the equation for sigmoidal dose response using PRIZM software (GraphPAD PRIZM).

[7] = target: T2, human IL4; test: IL4RA binding inhibition; assay not re-described (Luminex of Example 2)
[8] = target: T3, human IL13 R130Q; test: IL13Ra2 binding inhibition; assay not re-described (Luminex of Example 2)
Method: as §1

[9] = target: T1, human IL13; test: cell-based or functional assay; remark: listed apart in the source
[10] = target: cyno IL13 (cynomolgus monkey, UniProt Q0PW92 21-132); test: cell-based or functional assay
Sequence of cyno IL13 (Q0PW92 entry or part of it): as the sequence (P35225 35-146 limits assumed, stated change not applied) above, with G1S, R10K, M42V, S67N, H83R, L100V counted along it

[11] = target: T1, human IL13; test: SPR BIAcore, biotin-IL13 on SA chip, global fit
Method: Recombinant human IL13 (Peprotech) was minimally biotinylated on ice using sulfo-NHS-LCLC-Biotin and desalted into the experimental running buffer containing 10 mM HEPES, 150 mM NaCl, pH 7.4, 0.01% Tween-20, and 0.1 mg/mL BSA. Biotinylated IL13 was captured at three different surface densities (from about 150, 50, and 25 RU) onto three different BIAcore SA (streptavidin) sensor chips. Each binding protein sample was tested at 40 nM as the highest concentration in a 3-fold dilution series over the three different density IL13 surfaces. The dissociation phase for the highest concentration of the binding protein sample was monitored for one hour. The response data from each of the different density surfaces was globally fitted in order to extract estimates of the kinetic and affinity constants which are provided in Table 7 below.

[12] = target: T3, human IL13 R130Q; test: Luminex competition, 80 pM biotin-IL13 R130Q binding to IL13Ra2-Fc beads
Method: as §1

[13] = target: T1, human IL13; test: SPR ProteOn, biotin-hIL13 on streptavidin, 1:1 global fit
Method: Complete kinetic data describing binding of various engineered binding protein molecules to human IL13 was measured using a method similar to that described above for the single point affinity analysis. Briefly, streptavidin (Pierce) was immobilized to similar levels (˜1800 RUs) on all six channels of a ProteOn GLC chip via amine coupling (pH 5.0). Biotinylated hIL13 was captured at different surface densities (600˜100 RUs) on different channels. Protein binding was tested starting at 40 nM diluted in a 3-fold concentration series over the different density IL13 surfaces; a buffer sample was injected to monitor the baseline stability. Dissociation phases for all concentrations of each binding protein sample were monitored for one hour at a flow rate of 100 μl/min. Response data for all concentration series from the different density surfaces were globally fit to a 1:1 simple langmuir binding model to extract values of the kinetic (kₒₙ, koff) and affinity (KD) constants provided in Table 16.

T1 sequence (P35225 other isoform, or with tags, fused parts or gaps limits assumed): as the sequence (P35225 35-146 limits assumed, stated change not applied) above, with Q110R counted along it

B1: C01_6G9_V1_C06_53G6_V1 (designed binder)
chain: DLDKKLLEAARAGQDDEVRILMANGADVNARDSYGSTPLHLAAREGHLEIVEVLLKYGADVNAADFIGDTPLHLAAYRGHLEIVEVLLKYGADVNASDITGETPLHLAAQIGHLEIVEVLLKHGADVNAQDKFGKTAFDISIDNGNEDLAEILQKLNGGGGSGGGGSGGGGSGGGGSDLGKKLLEAARAGQDDEVRILMANGADVNATDDWGDTLLHLAATDGHLEIVEVLLKAGADVNANDAIGDTPLHLAALYGHLEIVEVLLKYGADVNATDLHGFTPLHLAAFWGHLEIVEVLLKHGADVNAQDKFGKTAFDISIDNGNEDLAEILQKLN
notes: bispecific IL13/IL4 ankyrin repeat protein with (GGGGS)4 linker; also called bispecific AR protein
With B1 the “A549/TARC IL13 IC50” value [1] was 0.075 nM, the “HEK Stat6 human IL13 IC50” value [1] was 0.015 nM and the “A549/TARC IL4 IC50” value [2] was 0.024 nM. The “HEK stat6 hIL4 IC50” value [2] was 0.0005 nM, the “Ramos Assay IC50” value [2] was 0.0048 nM and the Kd [3] was 0.0031 nM. It also gave a Kd [4] of 0.0093 nM, an IC50 [5] of 0.015 nM and an IC50 [6] of 0.099 nM. The IC50 [7] was 0.015 nM and the IC50 [8] was 0.099 nM.

B2: C06_44C12_V2_C01_6G9_V1 (designed binder)
chain: DLGKKLLEAASAGQDDEVHILMANGADVNALDDSGYTPLHLAAEDGHLEIVEVLLKHGADVNAADRLGDTPLHLAAFVGHLEIVEVLLKAGADVNAVDLAGVTPLHVAAFYGHLEIVEVLLKAGADVNAQDKFGKTAFDISIDNGNEDLAEILQKLNGGGGSGGGGSGGGGSGGGGSDLDKKLLEAARAGQDDEVRILMANGADVNARDSYGSTPLHLAAREGHLEIVEVLLKYGADVNAADFIGDTPLHLAAYRGHLEIVEVLLKYGADVNASDITGETPLHLAAQIGHLEIVEVLLKHGADVNAQDKFGKTAFDISIDNGNEDLAEILQKLN
notes: bispecific IL4/IL13 ankyrin repeat protein with (GGGGS)4 linker; also called bispecific AR protein
B2 was tested, and the “A549/TARC IL13 IC50” value [1] was 0.063 nM, the “HEK Stat6 human IL13 IC50” value [1] was 0.014 nM and the “A549/TARC IL4 IC50” value [2] was 0.016 nM. The “HEK stat6 hIL4 IC50” value [2] was 0.0007 nM, the “Ramos Assay IC50” value [2] was 0.0058 nM and the Kd [3] was 0.0017 nM. The Kd [4] was 0.0116 nM, the IC50 [5] was 0.017 nM and the IC50 [6] was 0.028 nM. It also gave an IC50 [7] of 0.017 nM and an IC50 [8] of 0.028 nM.

B3: C01_6G9_V1_C06_44C12_V2 (designed binder)
chain: DLDKKLLEAARAGQDDEVRILMANGADVNARDSYGSTPLHLAAREGHLEIVEVLLKYGADVNAADFIGDTPLHLAAYRGHLEIVEVLLKYGADVNASDITGETPLHLAAQIGHLEIVEVLLKHGADVNAQDKFGKTAFDISIDNGNEDLAEILQKLNGGGGSGGGGSGGGGSGGGGSDLGKKLLEAASAGQDDEVHILMANGADVNALDDSGYTPLHLAAEDGHLEIVEVLLKHGADVNAADRLGDTPLHLAAFVGHLEIVEVLLKAGADVNAVDLAGVTPLHVAAFYGHLEIVEVLLKAGADVNAQDKFGKTAFDISIDNGNEDLAEILQKLN
notes: as for B1
B3 was tested, and the “A549/TARC IL13 IC50” value [1] was 0.128 nM, the “HEK Stat6 human IL13 IC50” value [1] was 0.015 nM and the “A549/TARC IL4 IC50” value [2] was 0.055 nM. The “HEK stat6 hIL4 IC50” value [2] was 0.0072 nM, the “Ramos Assay IC50” value [2] was 0.0086 nM and the Kd [3] was 0.002 nM. The Kd [4] was 0.0091 nM, the IC50 [5] was 0.025 nM and the IC50 [6] was 0.023 nM. It also gave an IC50 [7] of 0.025 nM and an IC50 [8] of 0.023 nM.

B4: C06_28E5_V1_C01_6G9_V1 (designed binder)
chain: DLGKKLLEAARAGQDDEVRILMANGADVNAADDSGITPLHLAAEDGHLEIVEVLLKAGADVNAQDNLGDTPLHLAAWTGHLEIVEVLLKAGADVNAYDISGITPLHLAAFYGHLEIVEVLLKHGADVNAQDKFGKTAFDISIDNGNEDLAEILQKLNGGGGSGGGGSGGGGSGGGGSDLDKKLLEAARAGQDDEVRILMANGADVNARDSYGSTPLHLAAREGHLEIVEVLLKYGADVNAADFIGDTPLHLAAYRGHLEIVEVLLKYGADVNASDITGETPLHLAAQIGHLEIVEVLLKHGADVNAQDKFGKTAFDISIDNGNEDLAEILQKLN
notes: as for B2
With B4 the “A549/TARC IL13 IC50” value [1] was 0.084 nM, the “HEK Stat6 human IL13 IC50” value [1] was 0.019 nM and the “A549/TARC IL4 IC50” value [2] was 0.039 nM. The “HEK stat6 hIL4 IC50” value [2] was 0.0011 nM, the “Ramos Assay IC50” value [2] was 0.0054 nM and the Kd [3] was 0.0217 nM. The Kd [4] was 0.0106 nM, the IC50 [5] was 0.025 nM and the IC50 [6] was 0.036 nM. The IC50 [7] was 0.025 nM and the IC50 [8] was 0.036 nM.

B5: 7D7 (designed binder)
chain: DLGKKLLEAARAGQDDEVRILMANGADVNATDTYGSTPLHLAARHCHQEIVEVLLKHGADVNANDFIGDTPLHLAAWHGHLEIVEVLLKNGADVNAMDVTGETPLHLAAYHGHLDIVEVLLKNGADVNAQDKFGKTAFDISIDNGNEDLAEILQKLN
notes: N-Cap-(AR)3-C-Cap
B5 was tested, and the “STAT6 Phospho IC50” value [9] was 0.0105 nM, the “TARC expression IC50” value [9] was 0.354 nM and the “Cyno IL13 STAT6 IC50” value [10] was 0.162 nM. For the same binder, the Kd [11] was 0.204 nM, the koff [11] was 6.25e-05 s⁻¹ and the IC50 [12] was 0.058 nM.

B6: 9F8 (designed binder)
chain: DLGKKLLEAARAGQDDEVRILMANGADVNASDIFGSTPLHLAARHGHLEIVEVLLKYGADVNAMDFIGDTPLHLAAYRGHLEIVEVLLKYGVDVNADDHGDTPLHLAASMGHLEIVEVLLKNGADVNAQDKFGKTAFDISIDNGNEDLAEILQKLN
notes: ankyrin repeat protein
B6 was tested, and the “STAT6 Phospho IC50” value [9] was 0.055 nM, the Kd [11] was 0.11 nM and the koff [11] was 9.9e-05 s⁻¹. It also gave a kon [11] of 930000 M⁻¹ s⁻¹ and a Kd [13] of 0.00164 nM.
